For 18 molecules, optical density results are on record in patent US20210380703A1 (RIGEL PHARMACEUTICALS, published 2021).

One experiment addresses human ACVR2A (human, UniProt P27037 20-135, limits assumed). Description: ELISA. In outline: (§1)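 mAb binding by ELISA; antigens: hu ACVR2A, mu ACVR2A; pos ctrl biotinylated goat anti-hu kappa LC; neg ctrl hu Fc.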
In general terms: In an ELISA, binding on a coated surface is turned into a signal by an enzyme label.

The next experiment concerns the target mouse ACVR2A (mouse, UniProt P27038 20-135, limits assumed). Description: ELISA. The essentials: as §1
The target of experiment [1] is T1, biotinylated goat anti-human kappa light chain.
T1 construct: Positive control of the ELISA
As to the kind of experiment: ELISA; positive control. In outline:
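Monoclonal antibodies were first applied to human or mouse ACVR2A, alongside biotinylated goat anti-human kappa light chain (positive control) and human Fc (negative control); binding was then determined by ELISA.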
Further: test concentration or dose not given here.

Chain of human ACVR2A (P27037 20-135 limits assumed): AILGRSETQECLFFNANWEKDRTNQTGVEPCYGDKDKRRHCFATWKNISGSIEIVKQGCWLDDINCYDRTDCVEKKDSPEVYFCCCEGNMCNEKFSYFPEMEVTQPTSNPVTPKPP
Chain of mouse ACVR2A (P27038 20-135 limits assumed): as the sequence (P27037 20-135 limits assumed) above, with K20R, V73I counted along it

B1: 365_B09 (antibody, V domains shown)
VH: EVQLLESGGGLVQPGGSLRLSCAASGFTFDSYSMNWVRQAPGKGLEWVAGINYNSGYKSYADSVKGRFTISRDNSKNTLYLQMNSLRAEDTAVYYCARSATWHDTHLDYWGQGTLVTVSS
VL: DIQMTQSPSSLSASVGDRVTITCRASQSILRYLNWYQQKPGKAPKLLIYAATSLHSGVPSRFSGSGSGTDFTLTISSLQPEDFATYYCQQSYDNPLTFGGGTKVEIK
notes: VH/VL only
B1: the optical density with human ACVR2A came out at 3.26 OD; in the experiment with mouse ACVR2A, 3.32 OD; in experiment [1] it was 3.28 OD.

B2: 366_B04 (antibody, V domains shown)
VH: EVQLLESGGGLVQPGGSLRLSCAASGFTFDSYSMNWVRQAPGKGLEWVAGINYNGGYKGYADSVKGRFTISRDNSKNTLYLQMNSLRAEDTAVYYCARSATWHDTHLDYWGQGTLVTVSS
VL: DIQMTQSPSSLSASVGDRVTITCRASQSILTYVNWYQQKPGKAPKLVIYAATSRHSGVPSRFSGSGSGTDFTLTISSLQPEDFATYYCQQSYDTPLTFGGGTKVEIK
notes: VH/VL only
Consider B2, for which the optical density came out at 2.81 OD with human ACVR2A, 3.05 OD in the experiment with mouse ACVR2A and 3.4 OD in experiment [1].

B3: 365_C09 (antibody, V domains shown)
VH: EVQLLESGGGLVQPGGSLRLSCAASGFTFSDYGMNWVRQAPGKGLEWVSGINYNGGYKSYADSVKGRFTISRDNSKNTLYLQMNSLRAEDTAVYYCARSATWHDTHLDYWGQGTLVTVSS
VL: DIQMTQSPSSLSASVGDRVTITCRASQSIVSYVNWYQQKPGKAPKLLIYAATSRASGVPSRFSGSGSGTDFTLTISSLQPEDFATYYCQQSYDTPLTFGGGTKVEIK
notes: VH/VL only
For the molecule B3, the optical density with human ACVR2A came to 2.05 OD; with mouse ACVR2A, 2.18 OD; in experiment [1], 3.27 OD.

B4: 366_D07 (antibody, V domains shown)
VH: not shown
VL: DIQMTQSPSSLSASVGDRVTITCRASQSILTYLNWYQQKPGKAPKLLIYAATSLASGVPSRFSGSGSGTDFTLTISSLQPEDFATYYCQQSYSSPLTFGGGTKVEIK
notes: VH/VL only
In the case of B4, the results for the optical density (with human ACVR2A; with mouse ACVR2A; in experiment [1]) were 2.41 OD, 2.62 OD and 3.38 OD, respectively.

B5: 366_H05 (antibody, V domains shown)
VH: EVQLLESGGGLVQPGGSLRLSCAASGFTFDSYGMHWVRQAPGKGLEWVASINYNGGYTSYADSVKGRFTISRDNSKNTLYLQMNSLRAEDTAVYYCARSATWHDTHLDYWGQGTLVTVSS
VL: DIQMTQSPSSLSASVGDRVTITCRASQSILSYVNWYQQKPGKAPKLLIYAATSLASGVPSRFSGSGSGTDFTLTISSLQPEDFATYYCQQSYDLPLTFGGGTKVEIK
notes: VH/VL only
With B5, the optical density in the experiment with human ACVR2A came out at 2.44 OD; with mouse ACVR2A, 2.74 OD; in experiment [1], 3.47 OD.

B6: 366_A03 (antibody, V domains shown)
VH: EVQLLESGGGLVQPGGSLRLSCAASGFTFDSYSMNWVRQAPGKGLEWVAGINYNSGYKGYADSVKGRFTISRDNSKNTLYLQMNSLRAEDTAVYYCARSATWHDTHLDYWGQGTLVTVSS
VL: DIQMTQSPSSLSASVGDRVTITCRASQSISSYLNWYQQKPGKAPKLLIYAATSLASGVPSRFSGSGSGTDFTLTISSLQPEDFATYYCQQSYSNPLTFGGGTKVEIK
notes: VH/VL only
For the molecule B6, the optical density is 1.15 OD with human ACVR2A, 1.12 OD with mouse ACVR2A and 3.31 OD in experiment [1].

B7: 366_C01 (antibody, V domains shown)
VH: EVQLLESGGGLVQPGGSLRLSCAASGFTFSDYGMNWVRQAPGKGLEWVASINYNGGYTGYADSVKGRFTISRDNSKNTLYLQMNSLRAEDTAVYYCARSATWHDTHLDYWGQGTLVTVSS
VL: DIQMTQSPSSLSASVGDRVTITCRASQSIVTYLNWYQQKPGKAPKLLIYAATSPASGVPSRFSGSGSGTDFTLTISSLQPEDFATYYCQQSYELPLTFGGGTKVEIK
notes: VH/VL only
Turning to B7, the optical density in the experiment with human ACVR2A was found to be 2.31 OD; in the experiment with mouse ACVR2A, 2.41 OD; in experiment [1], 3.6 OD.

B8: 365_D05 (antibody, V domains shown)
VH: EVQLLESGGGLVQPGGSLRLSCAASGFTFDSYSMNWVRQAPGKGLEWVAGINYNGGYTSYADSVKGRFTISRDNSKNTLYLQMNSLRAEDTAVYYCARSATWHDTHLDYWGQGTLVTVSS
VL: DIQMTQSPSSLSASVGDRVTITCRASQSILTYVNWYQQKPGKAPKLLIYAATSRASGVPSRFSGSGSGTDFTLTISSLQPEDFATYYCQQSYNSPLTFGGGTKVEIK
notes: VH/VL only
Turning to B8, the optical density with human ACVR2A stood at 2.58 OD; with mouse ACVR2A it was 2.72 OD; in experiment [1], 3.51 OD.

B9: 365_F07 (antibody, V domains shown)
VH: EVQLLESGGGLVQPGGSLRLSCAASGFTFSSYSMNWVRQAPGKGLEWVSNINYNGGYKSYADSVKGRFTISRDNSKNTLYLQMNSLRAEDTAVYYCARSATWHDTALDYWGQGTLVTVSS
VL: DIQMTQSPSSLSASVGDRVTITCRASQSILSYVNWYQQKPGKAPKLVIYAATSRASGVPSRFSGSGSGTDFTLTISSLQPEDFATYYCQQSYDLPLTFGGGTKVEIK
notes: VH/VL only
Consider B9, for which the results for the optical density (in the experiment with human ACVR2A; with mouse ACVR2A; in experiment [1]) were 3.12 OD, 3.18 OD and 3.39 OD, respectively.

B10: 365_F08 (antibody, V domains shown)
VH: EVQLLESGGGLVQPGGSLRLSCAASGFTFDDYGMNWVRQAPGKGLEWVANINYNGGYTSYADSVKGRFTISRDNSKNTLYLQMNSLRAEDTAVYYCARSATWHDTHLDYWGQGTLVTVSS
VL: DIQMTQSPSSLSASVGDRVTITCRASQSILSYVNWYQQKPGKAPKLLIYAATSRHSGVPSRFSGSGSGTDFTLTISSLQPEDFATYYCQQSYSLPLTFGGGTKVEIK
notes: VH/VL only
B10: the optical density was determined as 2.25 OD in the experiment with human ACVR2A, 2.61 OD in the experiment with mouse ACVR2A and 3.63 OD in experiment [1].

B11: 366_D02 (antibody, V domains shown)
VH: EVQLLESGGGLVQPGGSLRLSCAASGFTFSSYSMNWVRQAPGKGLEWVASINYNGGYTSYADSVKGRFTISRDNSKNTLYLQMNSLRAEDTAVYYCARSATWHDTHLDYWGQGTLVTVSS
VL: DIQMTQSPSSLSASVGDRVTITCRASQSILSYVNWYQQKPGKAPKLLIYATTSLASGVPSRFSGSGSGTDFTLTISSLQPEDFATYYCQQSYDLPLTFGGGTKVEIK
notes: VH/VL only
In the case of B11, the optical density with human ACVR2A was 2.27 OD; with mouse ACVR2A, 2.55 OD; in experiment [1], 3.57 OD.

B12: 366_C02 (antibody, V domains shown)
VH: EVQLLESGGGLVQPGGSLRLSCAASGFTFSDYSMNWVRQAPGKGLEWVANINYNGGYTGYADSVKGRFTISRDNSKNTLYLQMNSLRAEDTAVYYCARSATWHDTHLDYWGQGTLVTVSS
VL: DIQMTQSPSSLSASVGDRVTITCRASQSIVSYLNWYQQKPGKAPKLLIYAATSRASGVPSRFSGSGSGTDFTLTISSLQPEDFATYYCQQSYDNPLTFGGGTKVEIK
notes: VH/VL only
For the molecule B12, the optical density was 3.03 OD with human ACVR2A, 3.04 OD with mouse ACVR2A and 3.43 OD in experiment [1].

B13: 366_A09 (antibody, V domains shown)
VH: EVQLLESGGGLVQPGGSLRLSCAASGFTFSDYGMHWVRQAPGKGLEWVASINYNSGYTSYADSVKGRFTISRDNSKNTLYLQMNSLRAEDTAVYYCARSATWHDTHLDYWGQGTLVTVSS
VL: DIQMTQSPSSLSASVGDRVTITCRASQSILTYLNWYQQKPGKAPKLLIYAATSRHSGVPSRFSGSGSGTDFTLTISSLQPEDFATYYCQQSYETPLTFGGGTKVEIK
notes: VH/VL only
With B13, the optical density in the experiment with human ACVR2A was 1.79 OD; with mouse ACVR2A it was 1.93 OD; in experiment [1], 3.28 OD.

B14: 365_E02 (antibody, V domains shown)
VH: EVQLLESGGGLVQPGGSLRLSCAASGFTFSSYSMNWVRQAPGKGLEWVANINYNGGYTSYADSVKGRFTISRDNSKNTLYLQMNSLRAEDTAVYYCAKSATWHDTHLDYWGQGTLVTVSS
VL: DIQMTQSPSSLSASVGDRVTITCRASQSIISYLNWYQQKPGKAPKLLIYAATSRASGVPSRFSGSGSGTDFTLTISSLQPEDFATYYCQQSYENPLTFGGGTKVEIK
notes: VH/VL only
As for B14, the optical density was 2.45 OD with human ACVR2A, 2.61 OD with mouse ACVR2A and 3.5 OD in experiment [1].

B15: 365_G12 (antibody, V domains shown)
VH: EVQLLESGGGLVQPGGSLRLSCAASGFTFSSYGMNWVRQAPGKGLEWVAGINYNSGYTSYADSVKGRFTISRDNSKNTLYLQMNSLRAEDTAVYYCARSATWHDTALDYWGQGTLVTVSS
VL: DIQMTQSPSSLSASVGDRVTITCRASQSILSYVNWYQQKPGKAPKLVIYAATSRASGVPSRFSGSGSGTDFTLTISSLQPEDFATYYCQQSYSNPLTFGGGTKVEIK
notes: VH/VL only
In the case of B15, the optical density is 2.74 OD with human ACVR2A, 2.75 OD with mouse ACVR2A and 3.55 OD in experiment [1].

B16: 365_C07 (antibody, V domains shown)
VH: EVQLLESGGGLVQPGGSLRLSCAASGFTFSDYGMNWVRQAPGKGLEWVASINYNGGYTSYADSVKGRFTISRDNSKNTLYLQMNSLRAEDTAVYYCARSATWHDTALDYWGQGTLVTVSS
VL: DIQMTQSPSSLSASVGDRVTITCRASQSIVSYVNWYQQKPGKAPKLLIYAATSRASGVPSRFSGSGSGTDFTLTISSLQPEDFATYYCQQSYDTPLTFGGGTKVEIK
notes: VH/VL only
With B16, the optical density with human ACVR2A turned out to be 1.94 OD; with mouse ACVR2A it was 1.92 OD; in experiment [1], 3.17 OD.

B17: 366_A05 (antibody, V domains shown)
VH: EVQLLESGGGLVQPGGSLRLSCAASGFTFSSYSMNWVRQAPGKGLEWVAGINYNSGYTGYADSVKGRFTISRDNSKNTLYLQMNSLRAEDTAVYYCARSATWHDTHLDYWGQGTLVTVSS
VL: DIQMTQSPSSLSASVGDRVTITCRASQSILTYVNWYQQKPGKAPKLVIYAATSLASGVPSRFSGSGSGTDFTLTISSLQPEDFATYYCQQSYNTPLTFGGGTKVEIK
notes: VH/VL only
For B17, the optical density worked out at 2.62 OD with human ACVR2A, 2.6 OD in the experiment with mouse ACVR2A and 3.48 OD in experiment [1].

B18: 365_F04 (antibody, V domains shown)
VH: EVQLLESGGGLVQPGGSLRLSCAASGFTFSSYGMNWVRQAPGKGLEWVAGINYNGGYTGYADSVKGRFTISRDNSKNTLYLQMNSLRAEDTAVYYCARSATWHDTHLDYWGQGTLVTVSS
VL: DIQMTQSPSSLSASVGDRVTITCRASQSIVTYVNWYQQKPGKAPKLLIYAATSRASGVPSRFSGSGSGTDFTLTISSLQPEDFATYYCQQSYDTPLTFGGGTKVEIK
notes: VH/VL only
Consider B18, for which the optical density with human ACVR2A came to 2.26 OD; in the experiment with mouse ACVR2A it was 2.51 OD; in experiment [1], 3.47 OD.
